# Experimental data: the supplement of paper PMC7877785
# ± gives the uncertainty stated by the source.
# Test: self-splicing fitness, log relative to wild type (ln ratio); higher = more splicing; Tetrahymena group I intron in knt gene, E. coli kanamycin selection, DiMSum; sequences stand for … in CUCUCU…GGAGGGAAAAGUUAUCAGGCAUGCACCUGGUAGCUAGUCUUUAAACCAAUAGAUUGCAUCGGUUUAAAAGGCAAGACCGUCAAAUUGCGGGAAAGGGGUCAACAGCCGUUCAGUACCAAGUCUCAGGGGAAACUUUGAGAUGGCCUUGCAAAGGGUAUGGUAAUAAGCUGACGGACAUGGUCCUAACCACGCAGCCAAGUCCUAAGUCAACAGAUCUUCUGUUGAUAUGGAUGCAGUUCACAGACUAAAUGUCGGUCGGGGAAGAUGUAUUCUUCUCAUAAGAUAUAGUCGGACCUCUCCUUAAUGGGAGCUAGCGGAUGAAGUGAUGCAACACUGGAGCCGCUGGGAACUAAUUUGUAUGCGAAAGUAUAUUGAUUAGUUUUGGAGUACUCGUGGUCG
# How it was run: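 Six replicate transformations of E. coli BL21(DE3) with a pET-22b(+) library were grown overnight at 37°C or 30°C. The library randomised all eight P1ex-region intron nucleotides, the intron lying in the knt kanamycin-resistance gene, and plates were LB agar with or without 25 μg/mL kanamycin plus 100 μg/mL carbenicillin, 50 μM IPTG and 0.2% rhamnose. Pooled colonies were amplicon-sequenced on an Illumina HiSeq 2500, and fitness is the DiMSum error-weighted combination of wild-type-normalised replicate fold changes, kanamycin versus none.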
Sequence,self-splicing fitness (ln) (30 °C),self-splicing fitness (ln) (37 °C)
UAGGAGCAAUAUUACGUAGC,-3.98 ± 0.24,-2.74 ± 0.21
UAGGAGCAAUAUUACGUCCA,-1.23 ± 0.17,-0.339 ± 0.18
UAGGAGCAAUAUUACGUGCG,-2.89 ± 0.17,-0.951 ± 0.16
UAGGAGCAAUAUUACGUGUU,-2.97 ± 0.13,-2.51 ± 0.17
UAGGAGCAAUAUUACGUUAC,,-2.08 ± 0.32
UAGUAGCAAUAUUACGACAG,-2.01 ± 0.3,-1.18 ± 0.37
UAGUAGCAAUAUUACGACCU,-0.902 ± 0.11,0.242 ± 0.11
UAGUAGCAAUAUUACGCAGA,-2.43 ± 0.23,-2.99 ± 0.18
UAGUAGCAAUAUUACGCAUA,-1.58 ± 0.11,-1.69 ± 0.11
UAGUAGCAAUAUUACGCCCU,-1.34 ± 0.21,-0.583 ± 0.2
UAGUAGCAAUAUUACGGCGG,-0.668 ± 0.085,-0.639 ± 0.11
UAGUAGCAAUAUUACGGCGU,-2.15 ± 0.17,-1.2 ± 0.17
UAGUAGCAAUAUUACGGGAG,-3.69 ± 0.4,-2.3 ± 0.45
UAGUAGCAAUAUUACGGUGG,-3.44 ± 0.27,-2.09 ± 0.2
UAGUAGCAAUAUUACGUCUA,0.265 ± 0.095,0.659 ± 0.1
UAGUAGCAAUAUUACGUGCC,-2.98 ± 0.25,-2.11 ± 0.27
UAUAAGCAAUAUUACGCAAG,-1.86 ± 0.23,0.725 ± 0.17
UAUAAGCAAUAUUACGCAGU,-3.27 ± 0.2,-1.68 ± 0.15
UAUAAGCAAUAUUACGCAUG,-0.714 ± 0.12,-0.154 ± 0.13
UAUAAGCAAUAUUACGCCAG,-0.478 ± 0.21,-0.728 ± 0.27

Sequence,self-splicing fitness (ln) (30 °C),self-splicing fitness (ln) (37 °C)
UAUAAGCAAUAUUACGCGGC,-3.53 ± 0.35,-2.92 ± 0.47
UAUAAGCAAUAUUACGCGUC,-3.23 ± 0.28,-1.14 ± 0.23
UAUAAGCAAUAUUACGCUGU,-2.45 ± 0.2,-3.32 ± 0.35
UAUAAGCAAUAUUACGGAGU,-3.46 ± 0.32,-1.46 ± 0.2
UAUAAGCAAUAUUACGGAUG,-0.677 ± 0.055,-0.286 ± 0.083
UAUAAGCAAUAUUACGGCGA,-0.0284 ± 0.1,-0.427 ± 0.11
UAUAAGCAAUAUUACGGCGG,0.309 ± 0.2,-0.0854 ± 0.25
UAUAAGCAAUAUUACGGGCG,-0.413 ± 0.14,0.339 ± 0.17
UAUAAGCAAUAUUACGGUGA,-1 ± 0.13,-0.726 ± 0.13
UAUAAGCAAUAUUACGGUGU,-2.97 ± 0.26,-1.34 ± 0.18
UAUAAGCAAUAUUACGGUUA,0.0292 ± 0.084,0.311 ± 0.095
UAUAAGCAAUAUUACGUAAC,-3.16 ± 0.27,0.142 ± 0.22
UAUAAGCAAUAUUACGUGCG,-0.452 ± 0.11,-0.00615 ± 0.17
UAUAAGCAAUAUUACGUUAU,-2.58 ± 0.19,-2.3 ± 0.28
UAUCAGCAAUAUUACGACGA,-0.537 ± 0.1,-0.425 ± 0.11
UAUCAGCAAUAUUACGACGU,-1.22 ± 0.094,-0.199 ± 0.11
UAUCAGCAAUAUUACGAGAU,-3.27 ± 0.16,-2.21 ± 0.23
UAUCAGCAAUAUUACGAGGG,-2.76 ± 0.18,-1.61 ± 0.19
UAUCAGCAAUAUUACGAUAA,-0.166 ± 0.081,-0.065 ± 0.092
UAUCAGCAAUAUUACGAUUA,0.023 ± 0.072,0.233 ± 0.087

Sequence,self-splicing fitness (ln) (30 °C),self-splicing fitness (ln) (37 °C)
UAUCAGCAAUAUUACGCAGC,-2.17 ± 0.19,-1.53 ± 0.18
UAUCAGCAAUAUUACGCCCA,0.297 ± 0.18,0.008 ± 0.18
UAUCAGCAAUAUUACGCCGU,-1.43 ± 0.24,0.487 ± 0.22
UAUCAGCAAUAUUACGCCUA,0.206 ± 0.11,0.701 ± 0.13
UAUCAGCAAUAUUACGCGAC,-3.07 ± 0.37,-2.3 ± 0.33
UAUCAGCAAUAUUACGCGUC,-2.53 ± 0.11,-0.926 ± 0.12
UAUCAGCAAUAUUACGGAAC,-1.44 ± 0.21,
UAUCAGCAAUAUUACGGAAU,-2.23 ± 0.1,-1.27 ± 0.12
UAUCAGCAAUAUUACGGACC,-2.13 ± 0.13,-1.39 ± 0.15
UAUCAGCAAUAUUACGGAUG,-1.11 ± 0.084,0.0808 ± 0.091
UAUCAGCAAUAUUACGGCAG,-0.148 ± 0.075,0.0916 ± 0.089
UAUCAGCAAUAUUACGGCCC,-2.13 ± 0.28,-1.05 ± 0.39
UAUCAGCAAUAUUACGGCGU,-0.864 ± 0.087,-0.578 ± 0.087
UAUCAGCAAUAUUACGGCUC,-1.86 ± 0.17,-0.563 ± 0.18
UAUCAGCAAUAUUACGGCUU,-1.03 ± 0.075,-0.106 ± 0.11
UAUCAGCAAUAUUACGGGCU,-2.72 ± 0.21,-2.23 ± 0.3
UAUCAGCAAUAUUACGGUCA,-0.435 ± 0.057,0.0755 ± 0.071
UAUCAGCAAUAUUACGUAGG,-2.1 ± 0.097,-1.09 ± 0.088
UAUCAGCAAUAUUACGUAUC,-2.11 ± 0.08,-0.822 ± 0.096
UAUCAGCAAUAUUACGUAUG,-0.321 ± 0.042,0.475 ± 0.058
